Molecular target: human CD38 protein immobilised on AR2G biosensor (human) (UniProt P28907)
Experiment: Octet BLI, immobilised CD38

koff: 0.0044 s⁻¹
Substance: Daratumumab scFv
